Data published in patent US20250026844A1 (SHANDONG SIMCERE BIOPHARMACEUTICAL, published 2025).
Where “and” joins values, the source holds several entries; their conditions need not be identical. Equal values may be shown once. Read-outs that look alike come from different tables or passages of the source.

Experiments:
[1] = biological target: T1, monkey BCMA-His protein (monkey, UniProt A0A2K5UD97 1-53); experiment: ELISA, plate coated with monkey BCMA-His 1 ug/mL, antibody titrated from 100 nM, HRP secondary antibody, OD450
T1 construct: Bought protein; also called monkey BCMA protein; CynoBCMA-his
Experimental: (§1) The specific method was as follows: Human BCMA protein (purchased from Acro, catalog number: BCA-H522y) and monkey BCMA protein (purchased from Acro, catalog number: BCA-C52H7) were diluted with PBS to a final concentration of 1 μg/mL, respectively, and then added to a 96-well ELISA plate at 50 al/well. The plate was sealed with a plastic film and incubated overnight at 4° C., the plate was washed twice with PBS the next day, and then a blocking solution [PBS+2% (w/v) BSA] was added for blocking at room temperature for 2 h. The blocking solution was discarded, the plate was washed 3 times with PBS, and 100 nM BCMA recombinant chimeric nanobody diluted gradiently or negative control antibody was added at 50 μl/well. After incubation at 37° C. for 2 h, the plate was washed 3 times with PBS. HRP (horseradish peroxidase)-labeled secondary antibody (purchased from Merck, catalog number: AP113P) was added, and incubated at 37° C. for 1 h, and the plate was washed 5 times with PBS. TMB substrate was added at 50 μl/well, and incubated at room temperature for 10 min, then a stop solution (1.0 M HCl) was added at 50 μl/well. The OD450 nm values were read by an ELISA microplate reader (Multimode Plate Reader, EnSight, purchased from Perkin Elmer). All antibodies bound to human BCMA protein. BCMA-Lab06 and BCMA-Lab07 had no cross-binding activity with monkey BCMA protein. […]

[2] = biological target: T2, human BCMA-His protein (human, UniProt Q02223 1-54); experiment: ELISA, plate coated with human BCMA-His 1 ug/mL, antibody titrated from 100 nM, HRP secondary antibody, OD450
T2 construct: Bought protein; also called human BCMA protein; huBCMA-His; not shown: His tag
T2 sequence (looked up): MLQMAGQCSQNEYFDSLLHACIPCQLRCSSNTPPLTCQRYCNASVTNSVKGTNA
Experimental: as §1

[3] = biological target: T1, monkey BCMA-His protein; experiment: ELISA, plate coated with monkey BCMA-His 1 ug/mL, antibody titrated from 100 nM, HRP secondary antibody, OD450; remark: listed apart in the source
Experimental: The binding activity of the control antibody to human BCMA-His protein (purchased from Acro, catalog number: BCA-H522y) and monkey BCMA-His protein (purchased from Acro, catalog number: BCA-C52H7) was detected by ELISA. The specific method was as follows: The antigen protein was diluted with PBS to a final concentration of 1 μg/mL, and then added to a 96-well ELISA plate at 50 μl per well. The plate was sealed with a plastic film and incubated overnight at 4° C., the plate was washed twice with PBS the next day, and then a blocking solution [PBS+2% (w/v) BSA] was added for blocking at room temperature for 2 h. The blocking solution was poured off and 50 μl of 100 nM serially diluted control antibody or negative control antibody was added to each well. After incubation at 37° C. for 2 h, the plate was washed 3 times with PBS. HRP (horseradish peroxidase)-labeled secondary antibody (purchased from Merck, catalog number: AP113P) was added, and incubated at 37° C. for 1 h, and the plate was washed 5 times with PBS. TMB substrate was added at 50 μl/well, and incubated at room temperature for 10 min, then a stop solution (1.0 M HCl) was added at 50 al/well. The OD450 nm values were read by an ELISA microplate reader (Multimode Plate Reader, EnSight, purchased from Perkin Elmer). The results are shown in Tables 2 and 3 and FIGS. 1A and 1B. […]

[4] = biological target: T3, human BCMA on cells (human, UniProt Q02223 1-184); experiment: FACS, U266 cells
T3 construct: whole, on cells; also called H929 cells; U266 cells
T3 sequence (looked up): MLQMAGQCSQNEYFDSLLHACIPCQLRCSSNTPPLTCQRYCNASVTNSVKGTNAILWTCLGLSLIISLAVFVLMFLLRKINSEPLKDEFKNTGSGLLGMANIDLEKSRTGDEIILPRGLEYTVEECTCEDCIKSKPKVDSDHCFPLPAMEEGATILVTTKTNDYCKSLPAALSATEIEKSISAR
Experimental: (§2) H929 cells and U266 cells were scale-up cultured in T-75 cell culture flasks to the logarithmic growth phase, and the cells were pipetted into a single cell suspension. After the cells were counted, the cells were centrifuged and the cell pellet was resuspended in FACS buffer (PBS+2% fetal calf serum) to 2×10⁶ cells per ml, and the suspension was added to the 96-well FACS reaction plate at 50 μl per well, REGN5459-hlgG1 and HPN217-hHcAb antibodies were used as primary antibodies, and APC-labeled goat anti-human IgG (H+L) secondary antibodies (purchased from Jackson, catalog number: 109-605-088) were detected and analyzed by FACS (FACS Canto™, purchased from BD Corporation). The results are shown in Table 4 and FIGS. 2A and 2B, and indicate that both H929 cells and U266 cells can bind to REGN5459-hlgG1 and HPN217-hHcAb antibodies.

[5] = biological target: T2, human BCMA-His protein; experiment: SPR (Biacore), antibody captured on Protein A chip, BCMA-His in solution
Experimental: (§3) The flow cell was set to 25° C. The sample block was set to 16° C. Both were pretreated with the running buffer. In each cycle, an antibody to be detected was first captured with a Protein A chip, and then a single concentration of BCMA antigen protein was injected. The binding and dissociation processes of the antibody and the antigen protein were recorded, and finally Glycine pH 1.5 (GE Healthcare; BR-1003-54) was used to complete chip regeneration. Binding was measured by injecting different concentrations of BCMA-His in solution for 240 s with a flow rate of 30 μL/min. The concentration started from 200 nM (see the detailed results for the actual concentration in the test) and was diluted at 1:1, making a total of 5 concentrations. The dissociation phase was monitored for up to 600 s and was triggered by switching from sample solution to running buffer. The surface was regenerated by washing with a 10 mM glycine solution (pH 1.5) for 30 s at a flow rate of 30 μL/min. Bulk refractive index difference was corrected by subtracting the response obtained from the goat anti-human Fc surface. Blank injection was also subtracted (=double reference). For calculation of apparent KD and other kinetic parameters, Langmuir 1:1 model was used. The binding rate (Kₐ), dissociation rate (Kdis) and binding affinity (KD) of the recombinant candidate antibody to human BCMA protein are shown in the table, wherein REGN5459-hlgG1 antibody was used as a control.
According to the method in Example 5, Biacore was used to detect the affinity of the recombinant antibodies to human BCMA protein.

[6] = biological target: T3, human BCMA on cells; experiment: FACS, U266 cells; remark: listed apart in the source
Experimental: (§4) The desired cells were scale-up cultured in T-75 cell culture flasks to the logarithmic growth phase, and the cells were pipetted into a single cell suspension. After the cells were counted, the cells were centrifuged and the cell pellet was resuspended in FACS buffer (PBS+2% fetal calf serum) to 2×10⁶ cells per ml, and the suspension was added to the 96-well FACS reaction plate at 50 μl per well, then the sample to be tested of the candidate antibody was added at 50 μl per well and the mixture was incubated at 4° C. for 1 h. The obtained mixture was centrifuged and washed 3 times with a PBS buffer. Secondary antibody anti-hlgG(Fc) Alexa 647 (purchased from Jackson, catalog number: 109-605-098) was added at 50 μl/well, and incubated on ice for 1 h. The obtained mixture was centrifuged and washed 3 times with a PBS buffer. 100 μl of the mixture was taken for detection and result analysis by FACS (FACS Canto™, purchased from BD Company). Data analysis was performed by software (FlowJo) to obtain the mean fluorescence intensity (MFI) of the cells. Then, a software (GraphPad Prism8) was used for analysis, data fitting and EC50 calculation. BCMA-Lab05, BCMA-Lab06, and BCMA-Lab08 had poor binding to H929 and U266 cells, while the other antibodies performed better.
(§5) The specific method was the same as in Example 4(B).

[7] = biological target: T3, human BCMA on cells; experiment: FACS, U266 cells; remark: listed apart in the source
Experimental: as §4

[8] = biological target: T2, human BCMA-His protein; experiment: ligand competition ELISA: plate coated with human BCMA protein 1 ug/mL, antibody titrated, blocked ligand hAPRIL-biotin 0.5 ug/mL, OD450
Experimental: The antigen protein was diluted with PBS to a final concentration of 1 μg/mL, and then added to a 96-well ELISA plate at 50 μl per well. The plate was sealed with a plastic film and incubated overnight at 4° C., the plate was washed twice with PBS the next day, and then a blocking solution [PBS+2% (w/v) BSA] was added for blocking at room temperature for 2 h. The blocking solution was discarded, the plate was washed 3 times with PBS, and 200 nM BCMA recombinant chimeric nanobody diluted gradiently or negative control antibody was added at 50 μl/well. hAPRIL-biotin (purchased from Acro, catalog number: APL-H82F5) was diluted to 0.5 μg/mL, with 50 μl per well. After incubation at 37° C. for 1.5 h, the plate was washed 3 times with PBS. HRP (horseradish peroxidase)-labeled secondary antibody (purchased from Sigma, catalog number: S2438-250 μg) was added, and incubated at 37° C. for 1 h, and the plate was washed 5 times with PBS. TMB substrate was added at 50 μl/well, and incubated at room temperature for 10 min, then a stop solution (1.0 M HCl) was added at 50 al/well. The OD450 nm values were read by an ELISA microplate reader (Multimode Plate Reader, EnSight, purchased from Perkin Elmer). BCMA-Lab05, BCMA-Lab06 and BCMA-Lab08 had average blocking effects, while the other antibodies had good blocking effects.

[9] = biological target: T2, human BCMA-His protein; experiment: as above; remark: listed apart in the source
[10] = biological target: T2, human BCMA-His protein; experiment: SPR (Biacore), antibody captured on Protein A chip, BCMA-His in solution; remark: listed apart in the source
Experimental: as §3
The specific operating method referred to Example 5. The binding rate (Ka), dissociation rate (Kdis) and binding affinity (KD) of the humanized candidate nanobodies to human BCMA protein are shown Table 18, wherein REGN5459-hlgG1 antibody was used as a control.

[11] = biological target: T2, human BCMA-His protein; experiment: as above; remark: listed apart in the source
Experimental: as §3

[12] = biological target: T3, human BCMA on cells; experiment: FACS, H929 cells
Experimental: as §4, §5

[13] = biological target: T3, human BCMA on cells; experiment: FACS, H929 cells; remark: listed apart in the source
Experimental: as §4

[14] = biological target: T3, human BCMA on cells; experiment: FACS, H929 cells; remark: listed apart in the source
Experimental: as §2

T1 sequence (A0A2K5UD97 entry or part of it limits assumed): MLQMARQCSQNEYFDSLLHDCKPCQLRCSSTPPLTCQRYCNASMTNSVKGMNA

B1: REGN5459-hIgG1 (antibody, V domains shown)
VH: EVQLVESGGGLVQPGGSLRLSCAASGFTFSNFWMTWVRQAPGKGLEWVANMNQDGSEKYYVDSVKGRFTISRDNAKSSLYLQMNSLRAEDTAVYYCARDREYCISTSCYDDFDYWGQGTLVTVSS
VL: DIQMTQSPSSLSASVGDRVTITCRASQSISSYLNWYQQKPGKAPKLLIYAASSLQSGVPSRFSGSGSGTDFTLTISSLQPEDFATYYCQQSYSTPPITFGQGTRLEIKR
notes: Control antibody; also called REGN5459-hlgG1; BCMA antibody
EC50 (read off the curve) [1]: ~0.1 nM
EC50 (read off the curve) [2]: ~0.1 nM
EC50 (read off the curve) [3]: ~0.1 nM
EC50 [4]: 9.12 nM
Kd [5]: 0.267 nM
koff [5]: 0.000197 s⁻¹
kon [5]: 739000 M⁻¹ s⁻¹
EC50 [6]: 16.6 nM and 32.2 nM
EC50 [7]: 7.14 nM and 16.6 nM and 9.49 nM
IC50 (read off the curve) [8]: ~6 nM and ~5 nM
IC50 (read off the curve) [9]: ~5 nM
Kd [10]: 0.208 nM
koff [10]: 0.000162 s⁻¹
kon [10]: 781000 M⁻¹ s⁻¹
Kd [11]: 0.233 nM
koff [11]: 0.000178 s⁻¹
kon [11]: 766000 M⁻¹ s⁻¹
EC50 [12]: 9.39 nM and 13.2 nM
EC50 [13]: 5.24 nM and 9.39 nM and 6.46 nM
EC50 [14]: 6.78 nM
